The text below walks through data of publication PMC3799952 (Biochemistry, 2013).

B1: amino terminus-truncated recombinant human aromatase, wild type (enzyme)
chain: MAKKTSSKGRNYEGTSSIPGPGYCMGIGPLISHGRFLWMGIGSACNYYNRVYGEFMRVWISGEETLIISKSSSMFHIMKHNHYSSRFGSKLGLQCIGMHEKGIIFNNNPELWKTTRPFFMKALSGPGLVRMVTVCAESLKTHLDRLEEVTNESGYVDVLTLLRRVMLDTSNTLFLRIPLDESAIVVKIQGYFDAWQALLIKPDIFFKISWLYKKYEKSVKDLKDAIEVLIAEKRRRISTEEKLEECMDFATELILAEKRGDLTRENVNQCILEMLIAAPDTMSVSLFFMLFLIAKHPNVEEAIIKEIQTVIGERDIKIDDIQKLKVMENFIYESMRYQPVVDLVMRKALEDDVIDGYPVKKGTNIILNIGRMHRLEFFPKPNEFTLENFAKNVPYRYFQPFGFGPRGCAGKYIAMVMMKAILVTLLRRFHVKTLQGQCVESIQKIHDLSLHPDETKNMLEMIFTPRNSDRCLEH
B2: rArom E181A (enzyme, human)
chain: MAKKTSSKGRNYEGTSSIPGPGYCMGIGPLISHGRFLWMGIGSACNYYNRVYGEFMRVWISGEETLIISKSSSMFHIMKHNHYSSRFGSKLGLQCIGMHEKGIIFNNNPELWKTTRPFFMKALSGPGLVRMVTVCAESLKTHLDRLEEVTNASGYVDVLTLLRRVMLDTSNTLFLRIPLDESAIVVKIQGYFDAWQALLIKPDIFFKISWLYKKYEKSVKDLKDAIEVLIAEKRRRISTEEKLEECMDFATELILAEKRGDLTRENVNQCILEMLIAAPDTMSVSLFFMLFLIAKHPNVEEAIIKEIQTVIGERDIKIDDIQKLKVMENFIYESMRYQPVVDLVMRKALEDDVIDGYPVKKGTNIILNIGRMHRLEFFPKPNEFTLENFAKNVPYRYFQPFGFGPRGCAGKYIAMVMMKAILVTLLRRFHVKTLQGQCVESIQKIHDLSLHPDETKNMLEMIFTPRNSDRCLEH
B3: rArom E181K (enzyme, human)
chain: MAKKTSSKGRNYEGTSSIPGPGYCMGIGPLISHGRFLWMGIGSACNYYNRVYGEFMRVWISGEETLIISKSSSMFHIMKHNHYSSRFGSKLGLQCIGMHEKGIIFNNNPELWKTTRPFFMKALSGPGLVRMVTVCAESLKTHLDRLEEVTNKSGYVDVLTLLRRVMLDTSNTLFLRIPLDESAIVVKIQGYFDAWQALLIKPDIFFKISWLYKKYEKSVKDLKDAIEVLIAEKRRRISTEEKLEECMDFATELILAEKRGDLTRENVNQCILEMLIAAPDTMSVSLFFMLFLIAKHPNVEEAIIKEIQTVIGERDIKIDDIQKLKVMENFIYESMRYQPVVDLVMRKALEDDVIDGYPVKKGTNIILNIGRMHRLEFFPKPNEFTLENFAKNVPYRYFQPFGFGPRGCAGKYIAMVMMKAILVTLLRRFHVKTLQGQCVESIQKIHDLSLHPDETKNMLEMIFTPRNSDRCLEH

The data set deals with the molecule itself. Put plainly: native gel or EMSA. On the technique in general: Mobility shift assays separate free from complexed probe on a gel.
As a reminder, the stoichiometry N is a count of units in the complex or per binding partner. Regarding B1, the “stoichiometry N” value amounted to 5.
As for B2, the “stoichiometry N” value amounted to 2.
The value for B3 was 2.
